Assay results reported in patent US20020077284A1 (WHITEHEAD INSTITUTE FOR BIOMEDICAL RESEARCH, published 2002).
Positions of bridges follow the written chain, without caps; N, C: chain ends. Non-standard residues stand in square brackets, D forms with d.

Experiments:
[1] = biological target: T1, HIV-1 envelope protein gp41 subunit (HXB2 envelope), N-helix coiled-coil (HIV-1 (HXB2), UniProt P04578 512-856); assay: cell-based or functional assay
[2] = biological target: T2, N36 peptide of HIV-1 gp41 (HIV-1); assay: circular dichroism thermal melt at 222 nm; 10 µM C34 peptide + 10 µM N36 in PBS pH 7.0
T2 construct: Synthetic peptide; forms the trimeric N36 coiled-coil of the N36/C34 complex

[3] = biological target: T1, HIV-1 envelope protein gp41 subunit …; assay: cell-based or functional assay; remark: listed apart in the source
[4] = biological target: T2, N36 peptide of HIV-1 gp41; assay: circular dichroism thermal melt of the N36/C34 variant complex

Row | Binder | Tm (apparent melting temperature of the N36/C34 complex) [2] [° C.] | Tm (apparent melting temperature of the N36/C34 complex) [4] [° C.] | IC50 values (nanomolar) for cell fusion [1] [nM] | IC50 values (nanomolar) for virus entry [1] [nM] | further results
1 | Ac-[dK][dK]G[dA][dC][dE][dA][dR][dH][dR][dE][dW][dA][dW][dL][dC][dA][dA]-NH2 (disulfide 5-16 (inferred)) [D10pep1a] | – | – | – | – | IC50 for inhibition of syncytia formation, against D10pep1 [1]: ~2 fold
2 | Ac-[dK][dK]G[dA][dC][dE][dL][dL]G[dW][dE][dW][dA][dW][dL][dC][dA][dA]-NH2 (disulfide 5-16 (inferred)) [D10pep5] | – | – | – | – | IC50, syncytia assay [1]: ~6000 nM
3 | Ac-[dK][dK][dK][dK]G[dA][dC][dE][dL][dL]G[dW][dE][dW][dA][dW][dL][dC][dA][dA]-NH2 (disulfide 7-18 (inferred)) [D10pep5a] | – | – | – | – | IC50 for inhibition of syncytia formation, against D10pep5 [1]: ~2 fold
4 | Ac-WMEWDAEINNYTSLIHSLIEESQNQQEKNEQELL-NH2 (Position in gp41 numbering) [C34 peptide Arg^633→Ala] | 65 | – | – | – | IC50 (nM) cell fusion [3]: 0.76 nM; IC50 (nM) viral entry [3]: 2.6 nM
5 | Ac-WMEGDREINNYTSLIHSLIEESQNQQEKNEQELL-NH2 (Position in gp41 numbering) [C34 peptide Trp^631→Gly] | – | 35 | 25 | 38 | –
6 | Ac-WMELDREINNYTSLIHSLIEESQNQQEKNEQELL-NH2 [C34 peptide Trp^631→Leu] | – | 50 | 3.2 | 5.3 | –
7 | Ac-WMEADREINNYTSLIHSLIEESQNQQEKNEQELL-NH2 (Position in gp41 numbering) [C34 peptide Trp^631→Ala] | 37 | – | – | – | decrease in inhibitory activity against wildtype C34 [1]: ~30 fold
8 | Ac-WMEVDREINNYTSLIHSLIEESQNQQEKNEQELL-NH2 [C34 peptide Trp^631→Val] | – | 43 | 4.5 | 13 | –
9 | Ac-WMEWDREANNYTSLIHSLIEESQNQQEKNEQELL-NH2 (Position in gp41 numbering) [C34 peptide Ile^635→Ala] | 55 | – | – | – | IC50 (nM) cell fusion [3]: 0.96 nM; IC50 (nM) viral entry [3]: 4.1 nM; decrease in inhibitory activity against wildtype C34 [1]: ~2 fold
10 | Ac-WMEFDREINNYTSLIHSLIEESQNQQEKNEQELL-NH2 [C34 peptide Trp^631→Phe] | – | 59 | 1.6 | 3.61 | –
